Source: US20120328625A1

What was measured:
[1] = molecular target: Shh-N in conditioned medium (human) (UniProt Q15465); assay: cell-based or functional assay
[2] = molecular target: full length human Shh expressed on the cell surface (human) (UniProt Q15465); assay: cell-based or functional assay

- % Inhibition of Gli1 reporter, Conditioned Media N = 1, 4 µg/ml [1]: 103%
- % Inhibition of Gli1 reporter, Conditioned Media N = 2, 4 µg/ml [1]: 112%
- % Inhibition of Gli1 reporter, Co-Culture N = 1, 4 µg/ml [2]: 124%
- % Inhibition of Gli1 reporter, Co-Culture N = 2, 4 µg/ml [2]: 96%
- % Inhibition of Gli1 reporter, Co-Culture N = 3, 4 µg/ml [2]: 121%
B1: rmHIP (protein, UniProt Q7TN16 18-678, looked up)
chain: FFEGDAKFGERNEGSGARRRRCLNGNPPKRLKRRDRRVMSQLELLSGGEILCGGFYPRVSCCLQSDSPGLGRLENKIFSATNNSECSRLLEEIQCAPCSPHSQSLFYTPERDVLDGDLALPLLCKDYCKEFFYTCRGHIPGLLQTTADEFCFYYARKDAGLCFPDFPRKQVRGPASNYLGQMEDYEKVGGISRKHKHNCLCVQEVMSGLRQPVSAVHSGDGSHRLFILEKEGYVKILTPEGELFKEPYLDIHKLVQSGIKGGDERGLLSLAFHPNYKKNGKLYVSYTTNQERWAIGPHDHILRVVEYTVSRKNPHQVDVRTARVFLEVAELHRKHLGGQLLFGPDGFLYIILGDGMITLDDMEEMDGLSDFTGSVLRLDVDTDMCNVPYSIPRSNPHFNSTNQPPEVFAHGLHDPGRCAVDRHPTDININLTILCSDSNGKNRSSARILQIIKGRDYESEPSLLEFKPFSNGPLVGGFVYRGCQSERLYGSYVFGDRNGNFLTLQQSPVTKQWQEKPLCLGASSSCRGYFSGHILGFGEDELGEVYILSSSKSMTQTHNGKLYKIVDPKRPLMPEECRVTVQPAQPLTSDCSRLCRNGYYTPTGKCCCSPGWEGDFCRIAKCEPACRHGGVCVRPNKCLCKKGYLGPQCEQVDRNVRRVTR
